Source: US20200339694A1 (published 2020)
Read-outs that look alike come from different tables or passages of the source. Values belong to the binder of their own block, whether it stands above or below them.

What was measured:
[1] = biological target: T1, human IL6R (R and D systems cat #227-SR/CF) (human, UniProt P08887 20-358); experiment: ELISA; apparent, printed beside curve
T1 chain: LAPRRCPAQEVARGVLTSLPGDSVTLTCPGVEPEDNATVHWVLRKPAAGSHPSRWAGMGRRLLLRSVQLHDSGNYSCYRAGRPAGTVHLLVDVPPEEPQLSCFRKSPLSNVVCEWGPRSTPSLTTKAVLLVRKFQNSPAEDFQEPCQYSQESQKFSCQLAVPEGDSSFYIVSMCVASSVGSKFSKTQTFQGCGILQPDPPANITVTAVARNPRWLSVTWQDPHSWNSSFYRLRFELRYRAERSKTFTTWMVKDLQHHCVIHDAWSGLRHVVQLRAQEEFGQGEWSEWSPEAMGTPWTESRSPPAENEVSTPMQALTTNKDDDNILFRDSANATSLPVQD

[2] = biological target: T1, human IL6R (R and D systems cat …); experiment: ELISA; apparent, printed beside curve

Kd [1]: 2.2 nM
B1: Av1 antibody (antibody, V domains shown)
VH: QVQLQESGPGLVRPSQTLSLTCTVSGYSITSDHAWSWVRQPPGRGLEWIGYISYSGITTYNPSLKSRVTISRDNSKNTLYLQMNSLRAEDTAVYYCARSLARTTAMDYWGQGSLVTVSS
VL: DIQMTQSPSSLSASVGDRVTITCRASQDISSYLNWYQQKPGKAPKLLIYYTSRLHSGVPSRFSGSGSGTDFTFTISSLQPEDIATYYCQQGNTLPYTFGQGTKVEIKR

Kd [2]: 19.2 nM
B2: AV1-based activatable anti-IL6R antibody with Generation 1 mask Peptide 1 and substrate MMP/BV728 (antibody, V domains shown)
VH: B1 VH
VL: YRSCNWNYVSIFLDCDIQMTQSPSSLSASVGDRVTITCRASQDISSYLNWYQQKPGKAPKLLIYYTSRLHSGVPSRFSGSGSGTDFTFTISSLQPEDIATYYCQQGNTLPYTFGQGTKVEIKR
